Test results taken from the supplement of paper PMC10567573.

B1: C2CD2L (parent)
chain: EPAGSLRELGVWRSLLRLRATRAG
B2: TOR1AIP2 (parent)
chain: DGAGRTWQDSDTVKLLVDLELSYG

Variants of: B1
Test: protein stability index of a GFP-peptide fusion (GPS, HEK-293T) (PSI 1-6); higher = more stable
Settings: c terminus: a fixed tail appended
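Also: lentivirally expressed fusions sorted by FACS into six bins by GFP to DsRed ratio, PSI derived from sequencing read proportions per bin multiplied by bin number.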

Protein stability index, by site and new letter:
R19: H 1.85, Q 1.98, D 2.73, W 2.22, Y 1.48
R13: F 1.81, D 2.62, P 2.55, T 2.05, Q 2.56, Y 1.91
A23: H 2.05, Q 2.23, P 2.47, K 2.94, W 2.28, R 3.33, F 1.07
L16: P 4.09
G10: N 4.3, D 2.99, S 3.18, W 1.67, M 1.99, T 2.9
R17: D 3.73, E 3.13, S 3.04, F 1.95, C 2.15, T 2.3, G 3.26
L15: D 3.67, K 2.96, E 4.27, P 3.76, G 3.51, T 2.5, M 2.48
L9: G 3.69, F 3.97, S 3.16
R22: F 2.1, D 2.3, G 2.36, P 2.14, S 2.23, K 2.66
L6: K 2.36, S 2.95, I 2.2, C 2.17
G4: S 2.4, D 3.19, T 2.4, M 2.39, F 2.49
S14: K 1.96, R 1.91, A 1.66, E 2.47
W12: C 3.48, Q 3.87, A 3.02, P 3.7, E 3.84, S 4.37, D 1.9
V11: H 3.11, I 2.5, T 2.95, Y 2.21, L 2.17
A20: E 3, D 3.34, P 3.18, S 1.94
R7: I 1.64, M 2.92, A 3.16, H 2.67, L 2.44, F 1.14, P 3.35, C 1.74
L18: S 3.53, P 3.97, F 2.07, W 1.53, A 3.73, D 2.64
T21: L 2.12, K 2.97, M 2.3, I 2.84
A3: I 2.84, W 1.97, K 2.04
G24: Q 2.77, C 2.99, L 2.87, A 2.89, P 1.96, I 1.97, Y 1.99, N 1.91
E1: L 2.31, M 1.91
P2: R 2.41, T 1.93, A 2.08, E 2.5, Y 2.04
S5: R 2.03, E 3.05, D 2.56, V 2.04
E8: S 2.49, D 3.43, I 1.57, N 3, P 2.93

Variants of: B2
Test: as above
Settings: c terminus: a fixed tail appended

Protein stability index, by site and new letter:
K14: N 1.74, H 1.42, S 1.61, W 1.5, P 3.03, E 1.88, G 1.91, A 1.96, Q 1.63, T 1.61, R 1.83, D 1.91
S10: G 1.01, R 2.08, D 3.02, V 2.92, N 1.6, T 1.99, H 1.04, A 1.92, P 2.36, C 2.18, E 3.06, Q 1.9
G2: E 1.91, T 4.39, L 1.74, K 3.03, N 2.01, Y 2.53, V 1.39, D 2.53, I 1.28, R 2.06, Q 2.69, H 1.07, S 1.84, C 3.68, A 2.29, P 2.31
W7: H 2.83, R 3.68, N 4.06, F 2.91, P 2.45, M 2.36, D 4.15, I 2.5, L 2.03, G 3.22, V 2.44, A 3.35, C 2.79, E 4.3
Q8: G 3.19, K 1.38, E 2.26, N 2.26, R 2.88, S 3.33, M 2.09, P 2.49, Y 1.56, T 4.32, D 1.24
D1: T 3.05, Q 1.53, W 2.93, N 1.32, H 2.29, E 1.69, G 1.68, K 4.34
D11: R 1.13, Q 3.09, P 1.66, A 2.27, G 1.18, E 2.08, S 1.52, K 1.53, N 2.14, F 2.77, I 3.92
T12: S 2.28, K 2.6, Y 1.49, H 1.35, R 2.59, W 1.87, F 1.4, D 3.56, V 2.03, N 2.79, I 1.54, E 3.43, Q 1.6, M 1.58
V17: L 2.34, D 4.56, M 1.85, G 3.17, C 1.92, E 4.81, F 1.78, I 2.54
L16: D 3.52, P 3.38, V 1.42, T 3.66, G 3.57, E 3.69, N 3.94, R 2.98, K 4.25, W 2.88, I 2.57, Q 3.31, Y 1.82, C 1.99, S 3.36, M 2.02
V13: P 3.82, F 1.37, D 5.09, E 3.95, C 2.04, I 1.06, M 2.77, N 3.08, R 2.7, T 2.44, L 2.07, K 2.18
A3: D 1.53, S 1.4, I 1.09, N 1.73, K 1.65, M 2.51, C 2.55, Y 2.5, P 1.13, E 1.81, R 1.79, H 1.39, V 1.41
L15: Y 1.84, K 4.4, A 3.7, P 3.82, N 4.18, E 4.54, Q 4.28, H 3.54, R 3.9, F 2.18, S 4.04, V 2.53, I 1.75, G 3.75, T 3.67, W 2.07
T6: S 2.96, C 1.92, I 2.17, Y 1.58, D 2.37, E 2.62, K 3.73, A 1.74, W 1.1, Q 2.03
D9: E 1.5, R 3.52, V 2.09, N 2.92, H 1.09
R5: Y 2.33, A 1.95, N 2.74, L 2.27, H 3.25, C 1.13, K 2.1, D 2.39, E 2.67, V 3.3, Q 2.05, T 1.46, F 1.74, P 1.84, G 1.64, W 2.76, I 1.85
G4: H 1.62, S 2.01, L 2.34, I 2.38, E 2.58, Y 3.85, V 2.22, A 1.8, R 1.93, P 2.12, C 2.02, N 2.05, T 2.05, M 1.35, F 2.26, Q 1.43, K 2.63
